Source: patent US20030143232

What was measured:
[1] = molecular target: recombinant wild type survivin (unphosphorylated) (UniProt O15392)
[2] = molecular target: recombinant survivin(T34A) (UniProt O15392)
recombinant survivin(T34A), sequence (O15392 whole entry T34A): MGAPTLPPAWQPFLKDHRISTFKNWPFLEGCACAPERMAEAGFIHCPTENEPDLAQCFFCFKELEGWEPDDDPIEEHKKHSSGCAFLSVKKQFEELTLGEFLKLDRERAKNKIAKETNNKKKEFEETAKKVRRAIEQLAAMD

recombinant wild type survivin (unphosphorylated), sequence (O15392 whole entry, looked up): as the sequence (O15392 whole entry T34A) above, with A34T counted along it

Substance | in vitro kinase assay, 32P autoradiography [1] | in vitro kinase assay, 32P autoradiography [2]
baculovirus-expressed human Cdk2-cyclin E kinase complex | baculovirus-expressed Cdk2-cyclin E did not phosphorylate wild type survivin or survivin(T34A) | baculovirus-expressed Cdk2-cyclin E did not phosphorylate wild type survivin or survivin(T34A)
baculovirus-expressed human p34^cdc2-cyclin B1 kinase complex | baculovirus-expressed p34^cdc2-cyclin B1 readily phosphorylated recombinant wild type survivin | substitution of Thr^34→Ala, i.e. survivin(T34A), abolished phosphorylation by p34^cdc2-cyclin B1
